Tests used:
[1] = tested on: PshAI restriction endonuclease (recombinant, pPshAIR1, NEB#984) (Plesiomonas shigelloides); assay: cleavage_in_vitro; conditions: crude extract, NEBuffer 2, 30 C, 30 min
[2] = tested on: PshAI restriction endonuclease (native) (Plesiomonas shigelloides); assay: cleavage_in_vitro; conditions: total activity in Mono Q peak, assayed on lambda DNA

lambda DNA
activity (units/g cells) [1]: 1e+07 | activity [2]: 250000 units

From patent publication US5824529
